Measured values as given in US20230165981A1, “[161Tb]-BASED RADIOPEPTIDES” (priority 2021, published 2023).
Values joined by “and” are separate entries in the source; they are usually repeats but may differ in a detail not shown here. Equal values may be shown once. Read-outs that look alike come from different tables or passages of the source. Positions of bridges follow the written chain, without caps; N, C: chain ends. Non-standard residues stand in square brackets, D forms with d. Residues, ends and D or L forms follow the SMILES beside them. *: point of attachment. DOTA = O=C(O)CN1CCN(CC(=O)O)CCN(CC(=O)*)CCN(CC(=O)O)CC1; dPhe(4-NHCONH2) = NC(=O)Nc1ccc(C[C@@H](N)C(=O)O)cc1; Phe(4-Cl) = N[C@@H](Cc1ccc(Cl)cc1)C(=O)O

Assays:
[1] = Biodistribution: optimum injected molar amount; conditions: female, mouse, in vivo, iv, total radioactivity, 2 h p.i.
[2] = tested on: AR42J tumors; assay: Preclinical therapy study in AR42J tumor-bearing mice; type: in vivo
[3] = n-octanol/PBS distribution coefficient (logD), shake-flask method; type: physicochemical; conditions: n-octanol/PBS pH 7.4
Experimental: An aliquot of the radiolabeled peptide (0.5 MBq, 25 µL) was added to a mixture of 1475 µL PBS pH 7.4 and 1500 µL n-octanol. The respective tubes were vortexed for 60 sec and centrifuged for 6 min at 2500 rpm followed by the measurement of the activity concentration in a defined volume of each layer using a γ-counter (Perkin Elmer, Wallac Wizard 1480). The logD values were calculated as the logarithm of the ratio of counts per minute (cpm) measured in the n-octanol phase relative to the cpm measured in the PBS pH 7.4 phase. The experiments were performed three times with five replicates for each radiopeptide and the logD value was expressed as the average ± standard deviation (SD) of the values obtained in each experiment. […] A p value <0.05 was considered statistically significant.

[4] = Assessment of early side effects in therapy mice; conditions: endpoint of therapy
Experimental: Early side effects were assessed based on the RBW of each mouse which was monitored every second day. When an endpoint was reached or at the end of the study (after 49 days), relevant organs and tissues were collected, weighed and put into relation to the brain mass and body weight of the respective mouse. This allowed comparison of organ-to-brain and organ-to-body mass weight ratios. In addition, blood plasma parameters from blood collected immediately after euthanasia were measured.
RBW, organ mass and mass ratios at the endpoint: The RBW was monitored every second day. Mice were euthanized when a predefined endpoint criterion was reached or when the study was terminated at Day 49. RBWs, organ masses, organ mass ratios (kidney-to-brain, liver-to-brain and spleen-to-brain) and organ mass to body weight ratios (kidney-to-body mass, liver-to-body mass and spleen-to-body mass) were analyzed for significance using a one-way ANOVA test with a Tukey’s multiple comparisons post-test. A p-value of <0.05 was considered as statistically significant.
Blood plasma chemistry: Immediately before euthanasia of the mice that reached the endpoint, blood was sampled from the retrobulbar vein. The values of creatinine (CRE), blood urea nitrogen (BUN), alkaline phosphatase (ALP), total bilirubin (TBIL) and albumin (ALB) were determined in the plasma after centrifugation of the blood using a dry chemistry analyzer (DRI-CHEM 4000i, FUJIFILM, Japan). The average blood plasma parameters of each group were analyzed for significance using a one-way ANOVA test with a Tukey’s multiple comparisons post-test. A p-value of <0.05 was considered as statistically significant.

[5] = tested on: AR42J tumor-bearing mice; assay: Biodistribution: optimum injected molar amount; conditions: 2 h p.i.
[6] = in vivo; conditions: female, athymic nude (CD-1 Foxn-1nu), mouse, iv, 1 nmol/mouse, total radioactivity
Experimental: Five-week-old female, athymic nude mice (CD-1 Foxn-⅟nu) were obtained from Charles River Laboratories (Sulzfeld, Germany). Mice were subcutaneously inoculated with AR42J tumor cells (5 × 10^6 cells in 100 µL PBS) for SPECT/CT imaging, biodistribution and therapy studies. The SPECT/CT and biodistribution studies were performed 10-14 days after tumor cell inoculation when the tumor size reached a volume of ~250 mm^3.
The mice were sacrificed at 2 h and 24 h post injection (p.i.). Selected tissues and organs were collected, weighed, and the accumulated activity was counted in a γ-counter. The decay-corrected data were listed as the percentage of the injected activity per gram of tissue mass (% IA/g). The data were analyzed for significance using a two-way ANOVA with Tukey’s multiple comparison post-tests. A p-value of <0.05 was considered statistically significant.

Structure (SMILES): C[C@@H](O)[C@@H]1NC(=O)[C@H](CCCCN)NC(=O)[C@@H](Cc2c[nH]c3ccccc23)NC(=O)[C@H](Cc2ccc(O)cc2)NC(=O)[C@@H](NC(=O)[C@@H](Cc2ccccc2)NC(=O)CN2CCN(CC(=O)O)CCN(CC(=O)O)CCN(CC(=O)O)CC2)CSSC[C@@H](C(=O)N[C@H](CO)[C@@H](C)O)NC1=O [[^161Tb]Tb-DOTATOC, metal not drawn]
- tissue uptake at 2 h ([1]; CD-1 Foxn-1nu athymic nude, 0.04 nmol/mouse, Biodistribution: Adrenals, 0.040 nmol/mouse): 0.65 ± 0.08 %ID/g
- tissue uptake at 2 h ([1]; CD-1 Foxn-1nu athymic nude, 0.04 nmol/mouse, Biodistribution: Kidneys, 0.040 nmol/mouse): 9 ± 2 %ID/g
- tissue uptake at 2 h ([1]; CD-1 Foxn-1nu athymic nude, 0.2 nmol/mouse, Biodistribution: Heart, 0.20 nmol/mouse): < 0.1 %ID/g
- tissue uptake at 2 h ([1]; athymic nude (CD-1 Foxn-1nu), 0.04 nmol/mouse, Biodistribution: AR42J Tumor, 0.040 nmol/mouse): 16 ± 4 %ID/g
- tissue uptake at 2 h ([1]; athymic nude (CD-1 Foxn-1nu), 0.04 nmol/mouse, Biodistribution: Blood, 0.040 nmol/mouse): < 0.1 %ID/g
- tissue uptake at 2 h ([1]; athymic nude (CD-1 Foxn-1nu), 0.04 nmol/mouse, Biodistribution: Heart, 0.040 nmol/mouse): < 0.1 %ID/g
- tissue uptake at 2 h ([1]; athymic nude (CD-1 Foxn-1nu), 0.04 nmol/mouse, Biodistribution: Muscle, 0.040 nmol/mouse): < 0.1 %ID/g
- tissue uptake at 2 h ([1]; athymic nude (CD-1 Foxn-1nu), 0.2 nmol/mouse, Biodistribution: AR42J Tumor, 0.20 nmol/mouse): 14 ± 1 %ID/g
- tissue uptake at 2 h ([1]; athymic nude (CD-1 Foxn-1nu), 0.2 nmol/mouse, Biodistribution: Blood, 0.20 nmol/mouse): < 0.1 %ID/g
- tissue uptake at 2 h ([1]; athymic nude (CD-1 Foxn-1nu), 0.2 nmol/mouse, Biodistribution: Muscle, 0.20 nmol/mouse): < 0.1 %ID/g
- tissue uptake at 2 h ([1]; athymic nude (CD-1 Foxn-1nu), 1 nmol/mouse, Biodistribution: AR42J Tumor, 1.0 nmol/mouse): ~8 %ID/g
- tissue uptake at 2 h ([1]; athymic nude (CD-1 Foxn-1nu), kidney uptake, irrespective of the applied setting (0.04-1.0 nmol)): ~10 %ID/g

Structure (SMILES): C[C@@H](O)[C@@H]1NC(=O)[C@H](CCCCN)NC(=O)[C@@H](Cc2c[nH]c3ccccc23)NC(=O)[C@H](Cc2ccc(O)cc2)NC(=O)[C@@H](NC(=O)[C@@H](Cc2ccccc2)NC(=O)CN2CCN(CC(=O)O)CCN(CC(=O)O)CCN(CC(=O)O)CC2)CSSC[C@@H](C(=O)N[C@H](CO)[C@@H](C)O)NC1=O [[^177Lu]Lu-DOTATOC] [metal not drawn]
- Median survival ([2]; 2 x 10 MBq, 0.2 nmol): 19.5 days
- tumor growth delay ([2]; 2 x 10 MBq, 0.2 nmol, Day 0 and 7): 6.0 ± 4.4 days
- Time frame of euthanasia ([2]; 2 x 10 MBq, 0.2 nmol, end of study = 49 days): 12 to 22 days
- tumor doubling time ([2]; regrowth phase): 3.4 ± 0.8 days
- LogD [3]: -3.1 ± 0.2
- ALB (albumin) [4]: 24 ± 5 g/L
- ALP (alkaline phosphatase) [4]: 77 ± 8 U/L
- BUN (blood urea nitrogen) [4]: 6.3 ± 0.9 mmol/L
- CRE (plasma creatinine) [4]: <18 (n=5) µmol/L
- TBIL (total bilirubin) [4]: < 3 µmol/L and 4 ± 1 µmol/L
- Biodistribution: AR42J Tumor ([5]; 0.040 nmol/mouse): ~ 17 % IA/g
- Biodistribution: Blood ([5]; 0.040 nmol/mouse): ≤0.10 % IA/g
- Biodistribution: Heart ([5]; 0.040 nmol/mouse): ≤0.10 % IA/g
- Biodistribution: Kidneys ([5]; 0.040 nmol/mouse): 10 ± 2 % IA/g
- Biodistribution: Muscle ([5]; 0.040 nmol/mouse): ≤0.10 % IA/g
- Tu-to-adr (tumor-to-adrenals) ([5]; 0.040 nmol/mouse): 28 ± 2
- Tu-to-blood ([5]; 0.040 nmol/mouse): 213 ± 41
- Tu-to-kidney ([5]; 0.040 nmol/mouse): 1.9 ± 0.3
- Tu-to-liver ([5]; 0.040 nmol/mouse): 100 ± 8
- Tu-to-lung (tumor-to-lungs) ([5]; 0.040 nmol/mouse): 17 ± 3
- Tu-to-panc (tumor-to-pancreas) ([5]; 0.040 nmol/mouse): 9.7 ± 1.8
- Tu-to-sto (tumor-to-stomach) ([5]; 0.040 nmol/mouse): 11 ± 2
- Biodistribution: Blood ([5]; 0.20 nmol/mouse): <0.10 % IA/g
- Biodistribution: Femur ([5]; 0.20 nmol/mouse): 0.10 ± 0.01 % IA/g
- Biodistribution: Heart ([5]; 0.20 nmol/mouse): <0.10 % IA/g
- Biodistribution: Kidneys ([5]; 0.20 nmol/mouse): 10 ± 3 % IA/g
- Biodistribution: Muscle ([5]; 0.20 nmol/mouse): <0.10 % IA/g
- Tu-to-adr (tumor-to-adrenals) ([5]; 0.20 nmol/mouse): 47 ± 29
- Tu-to-blood ([5]; 0.20 nmol/mouse): 235 ± 60
- Tu-to-kidney ([5]; 0.20 nmol/mouse): 1.9 ± 0.4
- Tu-to-liver ([5]; 0.20 nmol/mouse): 118 ± 24
- Tu-to-lung (tumor-to-lungs) ([5]; 0.20 nmol/mouse): 27 ± 6
- Tu-to-panc (tumor-to-pancreas) ([5]; 0.20 nmol/mouse): 10 ± 2
- Tu-to-sto (tumor-to-stomach) ([5]; 0.20 nmol/mouse): 15 ± 4
- Biodistribution: AR42J Tumor ([5]; 1.0 nmol/mouse): 8.9 ± 1.5 % IA/g
- Biodistribution: Adrenals ([5]; 1.0 nmol/mouse): 0.28 ± 0.08 % IA/g
- Biodistribution: Blood ([5]; 1.0 nmol/mouse): <0.10 % IA/g
- Biodistribution: Femur ([5]; 1.0 nmol/mouse): <0.10 % IA/g
- Biodistribution: Heart ([5]; 1.0 nmol/mouse): <0.10 % IA/g
- Biodistribution: Intestines ([5]; 1.0 nmol/mouse): 0.20 ± 0.05 % IA/g
- Biodistribution: Kidneys ([5]; 1.0 nmol/mouse): 11 ± 1 % IA/g
- Biodistribution: Liver ([5]; 1.0 nmol/mouse): 0.26 ± 0.07 % IA/g
- Biodistribution: Lung ([5]; 1.0 nmol/mouse): 0.37 ± 0.06 % IA/g
- Biodistribution: Muscle ([5]; 1.0 nmol/mouse): <0.10 % IA/g
- Biodistribution: Pancreas ([5]; 1.0 nmol/mouse): 0.80 ± 0.13 % IA/g
- Biodistribution: Spleen ([5]; 1.0 nmol/mouse): 0.15 ± 0.03 % IA/g
- Biodistribution: Stomach ([5]; 1.0 nmol/mouse): 0.65 ± 0.11 % IA/g
- Tu-to-adr (tumor-to-adrenals) ([5]; 1.0 nmol/mouse): 29 ± 3
- Tu-to-lung (tumor-to-lungs) ([5]; 1.0 nmol/mouse): 25 ± 3
- Tu-to-panc (tumor-to-pancreas) ([5]; 1.0 nmol/mouse): 13 ± 1
- Tu-to-sto (tumor-to-stomach) ([5]; 1.0 nmol/mouse): 15 ± 5
- kidney uptake ([5]; irrespective of the applied setting (0.04-1.0 nmol)): ~ 10%

Structure (SMILES): C[C@@H](O)[C@@H]1NC(=O)[C@H](CCCCN)NC(=O)[C@@H](Cc2ccc(NC(N)=O)cc2)NC(=O)[C@H](Cc2ccc(O)cc2)NC(=O)[C@H](NC(=O)[C@H](Cc2ccc(Cl)cc2)NC(=O)CN2CCN(CC(=O)O)CCN(CC(=O)O)CCN(CC(=O)O)CC2)CSSC[C@@H](C(=O)N[C@H](Cc2ccc(O)cc2)C(N)=O)NC1=O [metal not drawn] ({DOTA}-[Phe(4-Cl)][dC]Y[dPhe(4-NHCONH2)]KTC[dY]-NH2; disulfide 2-7)
- LogD ([3]; read-out: LogD): -2.5 ± 0.1
- ALB (albumin) [4]: 23 ± 1 g/L
- ALP (alkaline phosphatase) [4]: 66 ± 5 U/L
- BUN (blood urea nitrogen) [4]: 8.2 ± 1.9 mmol/L and 8.2 ± 1.8 mmol/L
- CRE (plasma creatinine) [4]: <18 (n=5) µmol/L and 19 (n=1) µmol/L
- TBIL (total bilirubin) [4]: <3 (n=4) µmol/L and 4 ± 1 (n=2) µmol/L
- Tu-to-adr (tumor-to-adrenals) ([5]; 0.040 nmol/mouse): 11 ±4
- Tu-to-blood ([5]; 0.040 nmol/mouse): 289 ± 45
- Tu-to-kidney ([5]; 0.040 nmol/mouse): 4.3 ± 1.2
- Tu-to-adr (tumor-to-adrenals) ([5]; 0.20 nmol/mouse): 34 ± 9.2
- Tu-to-blood ([5]; 0.20 nmol/mouse): 492 ± 102
- Tu-to-kidney ([5]; 0.20 nmol/mouse): 4.3 ± 0.4
- Tu-to-liver ([5]; 0.20 nmol/mouse): 90 ± 11
- Biodistribution: Blood ([5]; 1.0 nmol/mouse): ≤0.10 % IA/g
- Biodistribution: Heart ([5]; 1.0 nmol/mouse): ≤0.10 % IA/g
- Biodistribution: Muscle ([5]; 1.0 nmol/mouse): ≤0.10 % IA/g
- Tu-to-adr (tumor-to-adrenals) ([5]; 1.0 nmol/mouse): 36 ± 6
- tissue uptake at 24 h ([6]; intestines): 0.14 ± 0.03 %ID/g
- tissue uptake at 2 h ([6]; kidneys): 11 ± 1 %ID/g
